T1: Recombinant mouse VEGFR1-Fc (R&D Systems) (mouse, UniProt P35969 27-759, limits assumed)
T1 construct: bought; not shown: Fc part of the bought fusion, not described
T1 sequence (looked up): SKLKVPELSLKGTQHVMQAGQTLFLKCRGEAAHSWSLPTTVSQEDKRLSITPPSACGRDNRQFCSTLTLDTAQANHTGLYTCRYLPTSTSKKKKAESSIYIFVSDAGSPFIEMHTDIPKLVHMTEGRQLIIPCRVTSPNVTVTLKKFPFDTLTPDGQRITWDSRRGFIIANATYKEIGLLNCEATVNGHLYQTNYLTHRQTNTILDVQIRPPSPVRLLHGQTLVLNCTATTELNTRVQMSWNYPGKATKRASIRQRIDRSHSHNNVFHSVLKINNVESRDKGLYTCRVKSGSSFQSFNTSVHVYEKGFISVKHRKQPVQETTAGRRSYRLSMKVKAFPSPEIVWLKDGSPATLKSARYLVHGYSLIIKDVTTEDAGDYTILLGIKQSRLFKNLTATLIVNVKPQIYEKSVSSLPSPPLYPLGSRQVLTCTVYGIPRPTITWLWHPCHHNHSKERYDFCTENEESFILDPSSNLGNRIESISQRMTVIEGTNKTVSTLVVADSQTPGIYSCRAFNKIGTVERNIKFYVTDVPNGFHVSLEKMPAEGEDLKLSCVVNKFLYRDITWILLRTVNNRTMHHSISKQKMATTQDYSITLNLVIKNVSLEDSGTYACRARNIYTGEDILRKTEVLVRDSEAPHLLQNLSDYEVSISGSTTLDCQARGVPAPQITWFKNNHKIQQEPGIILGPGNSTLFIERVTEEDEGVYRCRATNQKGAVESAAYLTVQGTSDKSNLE

B1: VGFB82 (antibody, human IgG1, lambda, L234A L235A, V domains shown)
VH: EVQLLESGGGLVQPGGSLRLSCEASGFDFSTYAMNWVRQAPGKGLEWVATINSEGTITSHAPAVKGRFTISRDNSKNTAYVQMNSLRAEDSAVYYCSSTTGTTHGMDVWGRGTTVTVSS
VL: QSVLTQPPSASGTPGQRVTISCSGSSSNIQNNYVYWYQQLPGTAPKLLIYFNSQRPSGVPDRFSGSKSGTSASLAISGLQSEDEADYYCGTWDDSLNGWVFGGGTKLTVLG
notes: human IgG1 (L234A/L235A/D265S)
B2: VGFB54 (antibody, human IgG1, lambda, L234A L235A, V domains shown)
VH: EVQLLESGGGSVQPGGSLRLSCTASGFNFEDYGMNWVRQAPGKGLDWVSSINRNGDISTYHVDSVKGRFTISRDNSKNTLYLQMNSLRAEDTAIYYCTKNHDYHGMDVWGQGTTVTVSS
VL: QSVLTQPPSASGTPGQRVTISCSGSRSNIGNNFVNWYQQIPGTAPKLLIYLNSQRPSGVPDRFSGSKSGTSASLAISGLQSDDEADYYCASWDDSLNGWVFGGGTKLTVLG
notes: human IgG1 (L234A/L235A/D265S), lambda, 2H:2L; from OmniChicken
B3: VGFB78 (antibody, human IgG1, lambda, L234A L235A, V domains shown)
VH: EVQLLESGGGLVQPGGSLRLSCAASSFTFYNYDMTWVRQAPGKGLEWVAGIGTSGTDMYYADSVKGRFTISRDNSKNTLYLQMNSLRAEDTAIYYCAKDYYYYGMDVWGLGTTVTVSS
VL: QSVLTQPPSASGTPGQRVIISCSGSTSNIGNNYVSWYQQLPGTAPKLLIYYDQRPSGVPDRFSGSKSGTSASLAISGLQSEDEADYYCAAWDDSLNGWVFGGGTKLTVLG
notes: as for B1
B4: VGFB71 (antibody, human IgG1, lambda, L234A L235A, V domains shown)
VH: EVQLLESGGGLVQPGGSLRLSCEASGFIFRDYNMNWVRQAPGKGLEWVSIITNDGSSTAYSDSVKGRFTISRDNSKNSLYLQMNSLRAEDTAIYYCVKVYYGMDDWGQGTTVTVSS
VL: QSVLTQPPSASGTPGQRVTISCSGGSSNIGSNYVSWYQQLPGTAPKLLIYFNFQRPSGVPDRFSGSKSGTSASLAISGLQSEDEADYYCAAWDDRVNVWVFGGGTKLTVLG
notes: as for B1

Target: T2, VGFW1 (human, UniProt P17948 27-338, limits assumed)
T2 construct: construct of the HDX-MS work; also called VEGFR1 (VGFW1)
T2 sequence (P17948 27-338 limits assumed): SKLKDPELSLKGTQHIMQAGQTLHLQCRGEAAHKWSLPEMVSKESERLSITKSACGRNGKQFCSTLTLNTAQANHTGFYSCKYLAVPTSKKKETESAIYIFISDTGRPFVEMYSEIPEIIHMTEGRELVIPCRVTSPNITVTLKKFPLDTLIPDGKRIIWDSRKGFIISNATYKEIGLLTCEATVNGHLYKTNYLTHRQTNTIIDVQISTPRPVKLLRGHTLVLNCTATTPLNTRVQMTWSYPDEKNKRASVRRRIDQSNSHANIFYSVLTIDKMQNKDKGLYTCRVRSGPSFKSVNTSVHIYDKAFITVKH
Assay: HDX-MS
In short: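 Hydrogen-deuterium exchange mass spectrometry mapped antibody binding on a recombinant VEGFR1 antigen. The read-out is the change in free energy per segment upon antibody binding. Segments above 2 kcal/mol count as strong epitopes and segments at 1-2 kcal/mol as weak ones.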

Binder | Free energy change upon binding (ΔΔG), VEGFR1 segment 141-147 [kcal/mol] | Free energy change upon binding (ΔΔG), VEGFR1 segment 147-153 [kcal/mol] | Free energy change upon binding (ΔΔG), VEGFR1 segment 172-177 [kcal/mol] | Free energy change upon binding (ΔΔG), VEGFR1 segment 178-199 [kcal/mol] | Free energy change upon binding (ΔΔG), VEGFR1 segment 200-200 [kcal/mol] | Free energy change upon binding (ΔΔG), VEGFR1 segment 201-204 [kcal/mol] | Free energy change upon binding (ΔΔG), VEGFR1 segment 211-215 [kcal/mol] | Free energy change upon binding (ΔΔG), VEGFR1 segment 218-228 [kcal/mol]
B1 | -0.6 | -0.1 | -0.6 | -1 | -0.5 | -3.3 | -0.1 | -0.3
B2 | -0.2 | -0.4 | -2.6 | -0.3 | -1.4 | -3.6 | -0.1 | -0.7
B3 | -0.3 | -0.6 | -2.7 | -1.1 | -2.9 | -3.6 | 0.1 | -0.2
B4 | -0.3 | -1.2 | -4.2 | 0 | -2.8 | -2.8 | -0.1 | -0.3

Target: T3, Recombinant human VEGFR1-Fc (R&D Systems) (human, UniProt P17948 27-687, limits assumed)
T3 construct: bought; not shown: Fc part of the bought fusion, not described
T3 sequence (P17948 27-687 limits assumed): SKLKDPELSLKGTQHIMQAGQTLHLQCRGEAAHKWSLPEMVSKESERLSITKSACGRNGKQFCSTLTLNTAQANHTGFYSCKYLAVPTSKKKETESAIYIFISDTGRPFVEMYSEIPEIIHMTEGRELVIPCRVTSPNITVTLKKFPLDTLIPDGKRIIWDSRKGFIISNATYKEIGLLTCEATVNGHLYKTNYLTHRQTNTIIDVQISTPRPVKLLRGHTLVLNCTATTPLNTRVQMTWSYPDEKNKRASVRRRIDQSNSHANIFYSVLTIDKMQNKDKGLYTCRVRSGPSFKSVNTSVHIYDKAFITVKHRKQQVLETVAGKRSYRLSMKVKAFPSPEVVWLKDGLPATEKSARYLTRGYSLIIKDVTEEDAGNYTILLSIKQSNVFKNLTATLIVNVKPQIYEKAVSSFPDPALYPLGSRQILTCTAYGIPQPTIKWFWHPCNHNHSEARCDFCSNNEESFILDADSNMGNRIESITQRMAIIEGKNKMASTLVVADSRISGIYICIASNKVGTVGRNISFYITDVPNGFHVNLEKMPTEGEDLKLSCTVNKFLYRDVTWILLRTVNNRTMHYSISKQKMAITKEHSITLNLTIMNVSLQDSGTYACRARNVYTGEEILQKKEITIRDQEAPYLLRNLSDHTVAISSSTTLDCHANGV
Assay: MSD ECL competition on plate-bound human VEGFR1-Fc; competitor biotin PlGF (2 nM)
In short: (§1)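 MSD 384 plates were coated with Protein A/G or anti-His mAb, blocked with Blocker A, and used to capture human or mouse VEGFR1-Fc or His-tagged cyno VEGFR1 at 0.5 ug/ml for 1 hour at room temperature. Antibody in half-log dilutions was pre-incubated for 30 minutes, after which biotinylated VEGFA (0.2 nM) or PlGF (2 nM) was added. Bound ligand was detected with Sulfo-tagged streptavidin on an MSD SECTOR S 600 imager, and IC50 and maximal percent inhibition were derived from the electro-chemiluminescence signal.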

Binder | IC50 [nM] | Max % Inh. [%]
B1 | 0.183 | 100
B2 | 0.159 | 100
B3 | 0.335 | 100

Target: T1, Recombinant mouse VEGFR1-Fc (R&D …)
Assay: MSD ECL competition on plate-bound mouse VEGFR1-Fc; competitor biotin PlGF (2 nM)
In short: as §1

Binder | IC50 [nM] | Max % Inh. [%]
B1 | 0.221 | 100
B2 | 0.24 | 98.4
B3 | 0.243 | 100

Target: T3, Recombinant human VEGFR1-Fc (R&D …)
Assay: MSD ECL competition on plate-bound human VEGFR1-Fc; competitor biotin human VEGFA165 (0.2 nM)
In short: as §1

Binder | IC50 [nM] | Max % Inh. [%]
B1 | 0.152 | 99.9
B2 | 0.141 | 99.9
B3 | 0.252 | 99.9

Target: T1, Recombinant mouse VEGFR1-Fc (R&D …)
Assay: MSD ECL competition on plate-bound mouse VEGFR1-Fc; competitor biotin mouse VEGFA164 (0.2 nM)
In short: as §1

Binder | IC50 [nM] | Max % Inh. [%]
B1 | 0.04 | 99.8
B2 | 0.026 | 100
B3 | 0.183 | 101

Target: T4, cynomolgus monkey VEGFR1, over-expressed on HEK293 cells (cynomolgus monkey)
T4 construct: whole, on cells; also called HEK/ cyno VEGFR1; cynoVEGFR1
Assay: flow cytometry, HEK cells over-expressing cyno VEGFR1; competitor biotinylated VEGF A (500 pM)

Binder | IC50 [nM]
B1 | 0.231
B2 | 0.0876
B3 | 0.815
B4 | 0.0957

Target: T5, human VEGFR1, full length, over-expressed on cells (human, UniProt P17948 27-1338)
T5 construct: on CHO-K1 or HEK cells; also called hVEGFR1; CHOK1/ human VEGFR1
T5 sequence (P17948 27-1338 limits assumed): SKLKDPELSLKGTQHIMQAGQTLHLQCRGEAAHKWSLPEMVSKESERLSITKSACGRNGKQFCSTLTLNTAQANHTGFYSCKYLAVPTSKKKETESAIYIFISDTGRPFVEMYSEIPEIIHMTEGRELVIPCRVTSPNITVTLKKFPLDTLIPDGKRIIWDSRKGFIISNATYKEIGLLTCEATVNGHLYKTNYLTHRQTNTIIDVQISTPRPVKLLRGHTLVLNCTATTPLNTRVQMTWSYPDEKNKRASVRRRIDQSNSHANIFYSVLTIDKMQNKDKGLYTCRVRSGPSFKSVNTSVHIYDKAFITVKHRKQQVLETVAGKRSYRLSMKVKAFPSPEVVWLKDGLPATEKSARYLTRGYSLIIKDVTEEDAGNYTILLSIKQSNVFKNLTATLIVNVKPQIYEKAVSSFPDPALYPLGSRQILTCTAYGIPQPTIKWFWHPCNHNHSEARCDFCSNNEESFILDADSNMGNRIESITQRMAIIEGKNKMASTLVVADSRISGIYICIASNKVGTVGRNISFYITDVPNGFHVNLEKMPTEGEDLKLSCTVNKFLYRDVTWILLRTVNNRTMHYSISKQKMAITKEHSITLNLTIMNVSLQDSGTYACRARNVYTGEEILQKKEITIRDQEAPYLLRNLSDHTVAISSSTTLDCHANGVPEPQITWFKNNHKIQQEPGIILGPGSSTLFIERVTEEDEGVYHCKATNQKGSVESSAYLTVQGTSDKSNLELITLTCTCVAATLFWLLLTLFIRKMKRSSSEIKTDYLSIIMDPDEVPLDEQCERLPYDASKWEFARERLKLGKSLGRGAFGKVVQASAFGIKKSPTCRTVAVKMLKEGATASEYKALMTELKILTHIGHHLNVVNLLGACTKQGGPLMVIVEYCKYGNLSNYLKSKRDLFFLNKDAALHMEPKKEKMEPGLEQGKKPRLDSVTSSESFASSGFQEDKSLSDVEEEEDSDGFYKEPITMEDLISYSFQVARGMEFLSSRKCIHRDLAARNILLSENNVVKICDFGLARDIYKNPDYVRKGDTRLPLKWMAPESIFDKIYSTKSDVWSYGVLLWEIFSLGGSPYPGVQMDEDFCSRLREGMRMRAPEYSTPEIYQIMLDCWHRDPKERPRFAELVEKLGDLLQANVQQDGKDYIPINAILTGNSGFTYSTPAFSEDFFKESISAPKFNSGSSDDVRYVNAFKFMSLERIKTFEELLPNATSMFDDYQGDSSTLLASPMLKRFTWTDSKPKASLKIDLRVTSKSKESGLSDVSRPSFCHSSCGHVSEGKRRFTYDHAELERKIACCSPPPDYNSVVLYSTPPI
Assay: flow cytometry, CHOK1 cells over-expressing human VEGFR1; competitor biotinylated VEGF A (500 pM)
Protocol: Ligand blocking on cells was determined as follows: Cell Trace Violet CSFE (ThermoFisher Scientific) stained cells were plated at 15,000 cells per well (30 μL/well; CHO parental or CHO cells engineered to over-express human VEGFR1) in FACS staining buffer. An equivalent volume of serially diluted test antibody was applied to the cells and incubated for one hour at 4° C. Cells were washed twice with 200 μL/well of stain buffer followed by the addition of 100 μL/well of biotinylated VEGF A ligand (500 pM). The cells were incubated at 4° C. for another hour followed by the addition of 50 µL/well of AF647-conjugated streptavidin (3 nM). The plate was incubated at 4° C. for 30 min protected from light, washed twice with 200 μL/well of stain buffer, collected by centrifugation, resuspended in running buffer containing Sytox Blue live/dead stain and then read on an Intellicyt iQue Plus flow cytometer. Data was fit to obtain IC₅₀ values. Percent ligand blocking was calculated for each concentration of each test antibody and IC50 values were determined (Table 25).

Binder | IC50 [nM]
B1 | 0.198
B2 | 0.0727
B3 | 0.683
B4 | 0.0795

Target: His tagged cyno VEGFR1 (cynomolgus monkey, UniProt A0A2K5VAF2 27-758)
Assay: MSD ECL competition on plate-bound His-tagged cyno VEGFR1; competitor biotin human VEGFA165 (0.2 nM)
In short: as §1

Binder | IC50 [nM] | Max % Inh. [%]
B1 | 0.081 | 99
B2 | 0.089 | 98.6
B3 | 0.134 | 98.6

Target: T6, human VEGFR3, over-expressed on K562 cells (human, UniProt P35916 25-1363)
T6 construct: whole, on cells; also called huVEGFR3; hVEGFR3
T6 sequence (P35916 25-1363): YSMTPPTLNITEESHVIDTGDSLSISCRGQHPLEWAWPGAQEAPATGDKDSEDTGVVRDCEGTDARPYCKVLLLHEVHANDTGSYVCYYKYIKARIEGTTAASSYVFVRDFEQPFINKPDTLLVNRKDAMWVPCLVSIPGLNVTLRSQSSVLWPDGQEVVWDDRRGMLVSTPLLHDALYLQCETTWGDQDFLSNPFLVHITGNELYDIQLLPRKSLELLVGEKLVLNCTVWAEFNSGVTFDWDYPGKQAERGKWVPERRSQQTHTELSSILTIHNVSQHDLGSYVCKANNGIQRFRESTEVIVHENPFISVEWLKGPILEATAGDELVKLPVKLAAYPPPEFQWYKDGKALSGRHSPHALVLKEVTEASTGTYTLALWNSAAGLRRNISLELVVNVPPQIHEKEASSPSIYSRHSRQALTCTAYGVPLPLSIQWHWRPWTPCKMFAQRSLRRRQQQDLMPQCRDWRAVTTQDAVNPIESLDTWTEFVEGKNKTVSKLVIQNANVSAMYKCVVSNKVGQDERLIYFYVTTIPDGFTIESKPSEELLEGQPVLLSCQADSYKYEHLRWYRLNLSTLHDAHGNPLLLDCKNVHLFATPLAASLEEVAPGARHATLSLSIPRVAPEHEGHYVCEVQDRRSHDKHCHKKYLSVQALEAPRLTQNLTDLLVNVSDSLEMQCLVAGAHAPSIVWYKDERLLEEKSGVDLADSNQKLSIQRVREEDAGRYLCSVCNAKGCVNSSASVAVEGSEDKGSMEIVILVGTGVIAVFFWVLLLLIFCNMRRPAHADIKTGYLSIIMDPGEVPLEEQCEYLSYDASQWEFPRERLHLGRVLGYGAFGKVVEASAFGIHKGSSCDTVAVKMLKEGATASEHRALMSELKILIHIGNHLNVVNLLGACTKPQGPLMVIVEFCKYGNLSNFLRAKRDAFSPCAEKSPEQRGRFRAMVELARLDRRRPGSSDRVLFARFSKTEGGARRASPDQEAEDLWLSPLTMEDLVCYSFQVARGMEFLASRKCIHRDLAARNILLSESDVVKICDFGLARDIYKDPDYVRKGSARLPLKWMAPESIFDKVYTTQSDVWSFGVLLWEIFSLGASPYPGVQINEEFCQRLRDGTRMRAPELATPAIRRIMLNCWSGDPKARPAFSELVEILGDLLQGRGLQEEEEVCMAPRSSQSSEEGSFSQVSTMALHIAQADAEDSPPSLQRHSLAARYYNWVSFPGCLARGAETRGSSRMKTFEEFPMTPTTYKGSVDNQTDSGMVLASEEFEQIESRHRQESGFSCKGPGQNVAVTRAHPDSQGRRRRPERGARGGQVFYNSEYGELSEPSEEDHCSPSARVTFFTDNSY
Assay: FACS cell binding (MFI) on K562 cells over-expressing human VEGFR3; expanded clone supernatant per paragraph 492, concentration not given
In short: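 Flow cytometry was used to measure binding of culture supernatants to HEK cells over-expressing mouse VEGFR1 or human VEGFR2 and to K562 cells over-expressing human VEGFR3. The supernatants came from chicken-derived clones expressed as scFv-Fc (human IgG1) by transient transfection and expanded to 6-well plates (2 mL). Binding is reported as mean fluorescence intensity.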

Binder | binding result
B1 | no binding
B2 | no binding
B3 | no binding
B4 | no binding
